Data reported in the nanobody polyreactivity screen of Harvey et al. (2022).

Test: yeast display, Sf9 membrane polyspecificity reagent, FACS + sequencing; frameworks hold sequencing errors
How it was run: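 Nanobodies came from a synthetic yeast display library in Saccharomyces cerevisiae BJ5465, induced with galactose for 36–48 hours and stained for 1 hour at 4 °C with 10% biotinylated, detergent-solubilized Sf9 membrane reagent. Cells were enriched on streptavidin microbeads and then FACS-sorted, with low and high (top ~1%) gates set on anti-HA fluorescence for expression and streptavidin fluorescence for reagent binding. Each polyreactivity label reflects the gate a clone came from. Genes were amplified by colony PCR, sequenced by MiSeq 2 × 250 and filtered by CDR length.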

Sequence	polyreactivity (PSR sort gate)
QVQLVESGGGLVQAGGSLRLSCAASGYILYPYAMGWYRQAPGKERELVAAIRQRGGSTYYADSVKGRFTISRDYAKNTVYLQMNSLKPEDTAVYYCAAYLSPKRALTRGYGYWGQGTQVTVSS	high polyreactivity
QVQLVESGGGLVQAGGSLRLSCAASGYISDTNAMGWYRQAPGKEREFVAVISSSVGSTYYADSVKGRFTISRDNAKNTVYLQMNSLKPEDTAVYYCNAEFNTVFLYWSLDSVRGYDYWGQGTQVTVSS	high polyreactivity
QVQLVESGGGLVQAGGSLRLSCAASGYIVRNAMGWYRQAPGKERELVAAISRRGGSTYYADSVKGRFTISRDNAKNTVYLQMNSLKPEDTAVYYCAKDKVIPSFDADYYYWGQGTQVTVSS	high polyreactivity
QVQLVESGGGLVQAGGSLRLSCAASGYIVTSYTMGWYIQAPGKERELVAAISASDGSTYADSVKGRFTISRDNAKNTVYLQMNSLKPEDTAVYYCNKAAYGGHRTSEQVGWVYLYDYWGQGTQVTVSS	low polyreactivity
QVQLVESGGGLVQAGGSLRLSCAASGYIYYYYAMGWYRQAPVKERELVAAITFSGGSTYYADSVKGRFTISRDNAKNTVYLQMNSLKPEDTAVYYCAKVELRDSALLGSDEYDYLGQGTQVTVSS	low polyreactivity
QVQLVESGGGLVQAGGSLRLSCAASGYLLGHYAMGWYRQATGKERELVAAISWSGGSTSYADSVKGRFTISRDKAKITFYLQMNSLKREDTAVYDCASAYYAYSRHAGGYWGQGTQVTVSS	low polyreactivity
QVQLVESGGGLVQAGGSLRLSCAASGYNFGWYAMGWYRQAPGKERELVAGISSAGSTNYADSVKGRFTISRDNAKNTVYLQMNSLKPEDTSVDYCARDKWGLRYAPTVDYWGQGTQVTVSS	high polyreactivity
QVQLVESGGGLVQAGGSLRLSCAASGYSFQKYGMGWYRQAPGKERELVAAITRSSGNTYYADSVKGRFTISRDTAKNTVYLQMNSLKPEDTAVYDCAAFYWGGVKYNYWGQGTQVTVSS	high polyreactivity
QVQLVESGGGLVQAGGSLRLSCAASGYSFRIYAMGWYRQAPGKERELVATITNGGSTHYADSEKGRFTISRDNAKNTVYLQMNSLKPEDTAVYYCAAYLPGWELRDYGYWGQGTQVTVSS	high polyreactivity
QVQLVESGGGLVQAGGSLRLSCAASGYSFSPNAMGWYRQEPGKDRELVAAISSGVSTDYADSVKGRFSISRDNAKNTVYLQMNSLKPEDTAVYYCAADDQYRVTLGYVYWGQGTQVTVSS	low polyreactivity
QVQLVESGGGLVQAGGSLRLSCAASGYTFAGNAMGWYRQAAGKERELVAAISRSGGRTYYADSVKGRFTISRDNAKNTVYLQMNSLNPEDTAVYYCAAYFPRTLFEFGYWGQGTQVTVSS	high polyreactivity
QVQLVESGGGLVQAGGSLRLSCAASGYTFALYAMGWYRQAPGKERELVAAITDSDGSTYADSVKGRFTISRDNAKNTVYLQMNSLKPEDNAVYYCAGRDPHLQGSSYLSYLTMDYWGQGTQVTVSS	low polyreactivity
QVQLVESGGGLVQAGGSLRLSCAASGYTFATKVMGWYRQAPGKERELVATITGSGGSTYYADSVKGRLTISRDNAKNTVYLQMNSLTPEDTAVYNCAARLYGWYYGGYTRYDYWGQGTQVTVSS	high polyreactivity
QVQLVESGGGLVQAGGSLRLSCAASGYTFCVYVMGWYRQAPGKERELVAAISGSTYYADSVKGRFTISRDNAKNTVYLQMNSLKPEDTAVYYCAAESYFFSPRTREKFDYWGQGTQVTVSS	low polyreactivity
QVQLVESGGGLVQAGGSLRLSCAASGYTFDINAMGWYRQAPGKERELVADISANDGSTSYADSVKGRFTISRDNAKNTVYLQMNSLKPEDTAVYYCAADYIWNPTWSVGYGDPGYDYCGQGTQVTVSS	low polyreactivity
QVQLVESGGGLVQAGGSLRLSCAASGYTFDPNAMGWYRQAPGKERELVAAISRIGGSTYYADSVKGRFTISRDNAKNTVYLQMKSLKPEDTAVYYCAVDWYLTGHWADDYWGQGTQVTVSS	low polyreactivity
QVQLVESGGGLVQAGGSLRLSCAASGYTFDTNVMGWYRQEPGKERELVATITGSGGSTYYADSVKGRFTISRDNAKNTVYLEMNSLKPEDTAVYYCAAYCYRYSFHWLKRWPYDWGQGTQVTVSS	high polyreactivity
QVQLVESGGGLVQAGGSLRLSCAASGYTFDYYAMGWYRQAPGKERELVAAIRRGGSTYYADSVKGRFTISRDNAKNTVYLQMNSLKPEDTAVYYCAAVIYRDGTIYDYWGQGTQVTVSS	high polyreactivity
QVQLVESGGGLVQAGGSLRLSCAASGYTFEDNAMGWYRQAPRKESELVAAIDWSGDSTYYADSVKGRFTISRDNAKNTVYLQMNSLKPEDTAVYYCAADYTTWTDMDYWGQGTQVTVSS	low polyreactivity
QVQLVESGGGLVQAGGSLRLSCAASGYTFFFNVMGWYRQAPGKVRELVAAISYSGGSTNYADSVKGRFTISRDNAKNTVYLQMNSLKPEDTAVYYCNARSVSRNGYEDVYWGQGTQVTVSS	low polyreactivity
QVQLVESGGGLVQAGGSLRLSCAASGYTFFYMGWYRQAPGKEREFVAVITYSGGSTYYADSVKGRFTISRDNAKNTVYLQMNSLKPEDTAVYYCAAAVWHYGRPGYLDSGYDYWGQGTQVTVSS	low polyreactivity
QVQLVESGGGLVQAGGSLRLSCAASGYTFFYYAMGWYRQAPGKERELVASISWNGGSTYYADSVKGRFTISRDNGKNTVYLQMNSLKPEDTAVYYCAADSPRPRLTSYGYIGGEYYYWGQGTQVTVSS	low polyreactivity

Sequence	polyreactivity (PSR sort gate)
QVQLVESGGGLVQAGGSLRLSCAASGYTFGHYVMGWYRQAPGKERELVAAISRSGGSTYYADSVKGRFTISRDNAKNTVYLQMNSLKPEDTAVYYCARGRIGGGAPGDKSSLNYYYWGQGTQVTVSS	high polyreactivity
QVQLVESGGGLVQAGGSLRLSCAASGYTFGSYAMGWYRPAPGKERELVAAITPGGSTYYADSVKGRFTISRDNAKNTVYLQMNSLKPEDTAVYYCNRATRYWKAYYWFKTMDYWGQGTQVTVSS	high polyreactivity
QVQLVESGGGLVQAGGSLRLSCAASGYTFGYYALGRYRPAPGKERELVAAISSGGITKYADSVKGRFTISRENAKNTVYLQMNSLKPEDTAVYYCAASWYRYRFIRYDYWGQGTQVTVSS	high polyreactivity
QVQLVESGGGLVQAGGSLRLSCAASGYTFGYYAMGWYRQAPGKERELVAAISYSGGNTYYADSVKGRFTISRDNAKNTVYLQMNSLKPEDTAVYYCNKRYWVRTGKVSSYAYWGQGTQVTVSS	high polyreactivity
QVQLVESGGGLVQAGGSLRLSCAASGYTFKAYAMGWYRQAPGKERELVAAISWSGARTYYADSVKGRFTISRDNAKNTVYLQMNSLKPEDTAVYYCAASNAVYAGRSYRDEFWGQGTQVTVSS	high polyreactivity
QVQLVESGGGLVQAGGSLRLSCAASGYTFKRNDMGWYRQAPGKERELVAAISKSGGSTYYADSVKGRFTISRDNAKNTVYLQMNSLKPEDTAVYYCPGPLPYYGQYDYWGQGTQVTVSS	low polyreactivity
QVQLVESGGGLVQAGGSLRLSCAASGYTFKYNAMGWYRQAPGKERELVAAISSRGDRTYYADSVKGRFTISRDNAKNTVYLQMNSLKPEDTVVYYCNKVARPRSRNDSWGQGTQVTVSS	high polyreactivity
QVQLVESGGGLVQAGGSLRLSCAASGYTFLDYAMGWYRQAPGKERELFAAINSGGSTYYADSVKGRFTISRDNAKNSVYFQMNSLNPEDTAVSYCAREDYVSYRLLYYLFDYWGQGTQVTVSS	low polyreactivity
QVQLVESGGGLVQAGGSLRLSCAASGYTFLVNAMGWYRQAPGKERELVAAISSGGSTYYADSVKGRFTISRDNAKNTVYLQMNSLKPEDTAVYYCAAPTDFLFWEFDYWGQGTQVTVSS	low polyreactivity
QVQLVESGGGLVQAGGSLRLSCAASGYTFNRNAMGWYIQAPGKERELVASITRRGGSTYYADSVKGRFTISRDNAKNTVYLQMNSLKPEDTAVYYCAVESIRTGDYWGQGTQVTVSS	high polyreactivity
QVQLVESGGGLVQAGGSLRLSCAASGYTFNRYAMGWYRQAPGKERELVAAITRGGTTYYADSVKGRFTISRDNAKNTVYLQMNSLKPEDTAVYYCNKFQPSGQYFKMGYWGQGTQVTVSS	high polyreactivity
QVQLVESGGGLVQAGGSLRLSCAASGYTFPIYAMGWYRQAPGKEREVVATISSGGRTNYADSVKGRFTISRDNAKNTVYLQMNSLKPEDTAVYYCNARRLGWHALYLYDYWGQGTQVTVSS	high polyreactivity
QVQLVESGGGLVQAGGSLRLSCAASGYTFPKYAMGWYRQAPGKERELVAAITKRGGRTYYADSVKGRFTISRDNAKNTVYLQMNSLKPEDTAVYYCAVDLDGPEYSQVHYDYWGQGTQVTVSS	high polyreactivity
QVQLVESGGGLVQAGGSLRLSCAASGYTFPLYAMGLYRQAPGKERELVADINIGGASTYYADSVKGRFTISRDNAKNTVYLQMNSLKPEDTAVYYCAKEYYDGYFPTFDYDYWGQGTQVTVSS	low polyreactivity
QVQLVESGGGLVQAGGSLRLSCAASGYTFPLYAMGWYIQAPGKETELVADINIGGASTYYADSVKGRFTISRDNAKNTVYLQMNSLKPEDTAVYYCAKEYYDGYFPTLDYDYWGQGTQVTVSS	low polyreactivity
QVQLVESGGGLVQAGGSLRLSCAASGYTFPPNAMGWYSQAPGKERELVAAISWRGDSTYYADSVKGRFTISRDNAKNTVYLQMISLKPEDTAVYYCAAGYRRGPDIYYYWGQVTQVTVSS	low polyreactivity
QVQLVESGGGLVQAGGSLRLSCAASGYTFPRNAMGWYRQEPGKERELVAAISASGGRTSYADSVKVRFTISRDNAKNTVYLQMNSLKPEDTAVYYCAAPFLRRIGYPRSYDYWGQGTQVTVSS	high polyreactivity
QVQLVESGGGLVQAGGSLRLSCAASGYTFPYYAMGWYIQAPGKERELVAAISRSGGTTYYADSVKGRFTISRDNAKNTVYLQLNSLKPEDTAVYYCAALYGSRSTYHMDDYWGQGTQVTVSS	high polyreactivity
QVQLVESGGGLVQAGGSLRLSCAASGYTFQKYAMGWYRQAPGKERESVAAITRSGTRTYYADSVKGRFTISRDNAKNTVYLQMNSLKPEDTAVYYCAAETYYSIYDYWGQGTQVTVSS	high polyreactivity
QVQLVESGGGLVQAGGSLRLSCAASGYTFQYYTMGWYRQAPGKERELVAAISSSGGRTYYADSVKGRFTISRDNAKNTVYLQMNSLKPEDTAVYYCAATYSYRSDYYSWGQGTQVTVSS	high polyreactivity
QVQLVESGGGLVQAGGSLRLSCAASGYTFRANGMGWYRQAPGKERELVAAITQSVDNTYYADSVKGRFTISRDNAKNTVYLQVNSLKPEDTAVYYCATEYGQTGYPQMGYWGQGTQVTVSS	low polyreactivity
